Positions count from the first letter of the chain named. In names and notes the source's numbering stands. Read-outs that look alike come from different tables or passages of the source.
How the values were obtained:
HER2 on SK-OV-3 cells = biological target: T1, HER2 on SK-OV-3 cells (UniProt P04626 23-1255, limits assumed); assay: flow cytometry on SK-OV-3 cells, APC anti-human IgG Fc secondary antibody, mean fluorescence intensity, 4-parameter fit; drawn table
T1 construct: whole, on cells; also called HER2 antigen

Mouse CD28 on cells = biological target: T2, Mouse CD28 on cells (mouse, UniProt P31041 20-218); assay: flow cytometry on mouse T cells, median fluorescence intensity; drawn table; design: AUC: unit not given beside the values
T2 construct: also called CD28 on mouse T cells
T2 sequence (P31041 20-218 limits assumed): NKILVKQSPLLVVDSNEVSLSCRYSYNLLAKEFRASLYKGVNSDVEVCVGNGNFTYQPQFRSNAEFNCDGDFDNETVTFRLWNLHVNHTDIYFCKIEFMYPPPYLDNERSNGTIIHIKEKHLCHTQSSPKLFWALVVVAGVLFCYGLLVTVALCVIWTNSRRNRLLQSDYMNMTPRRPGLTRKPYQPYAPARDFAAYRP

[1] = biological target: T3, Human CD28 (ELISAs of Examples 4 and 13) (human, UniProt P10747 19-152, limits assumed); assay: ELISA
[2] = biological target: Mouse CD28 (ELISA of Example 13) (mouse, UniProt P31041 20-150, limits assumed); assay: ELISA
Chain of Mouse CD28 (ELISA of Example 13) (P31041 20-150 limits assumed): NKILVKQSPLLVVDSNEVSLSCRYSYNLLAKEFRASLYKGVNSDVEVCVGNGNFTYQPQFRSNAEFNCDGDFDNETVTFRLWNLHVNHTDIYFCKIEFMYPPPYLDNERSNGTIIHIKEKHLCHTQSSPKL

[3] = biological target: T3, Human CD28 (ELISAs of Examples 4 and 13); assay: ELISA; remark: listed apart in the source
[4] = biological target: T4, His-tagged human CTLA4 protein (human, UniProt P16410 36-161, limits assumed); assay: Octet BLI, mAb captured;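 for Kd: Anti-human Fc biosensors captured the antibodies, then His-tagged protein analytes at 100 nM associated for 300 s and dissociated for 300 s, fitted by a 1:1 Langmuir model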;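 for koff: Anti-human Fc biosensors captured the antibodies, then His-tagged protein analytes at 100 nM associated for 300 s and dissociated for 300 s, fitted by a 1:1 Langmuir model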
T4 construct: not shown: His tag
T4 sequence (P16410 36-161 limits assumed): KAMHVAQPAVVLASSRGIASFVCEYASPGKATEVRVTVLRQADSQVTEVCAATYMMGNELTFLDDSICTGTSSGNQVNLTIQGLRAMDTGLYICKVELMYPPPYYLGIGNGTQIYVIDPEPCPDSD

[5] = biological target: T5, His-tagged human CD28 protein (human, UniProt P10747 19-152); assay: Octet BLI, mAb captured;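 note: Anti-human Fc biosensors captured the antibodies, then His-tagged protein analytes at 100 nM associated for 300 s and dissociated for 300 s, fitted by a 1:1 Langmuir model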
T5 construct: not shown: His tag

Human CD28 on cells = biological target: T6, Human CD28 on cells (human, UniProt P10747 19-220); assay: flow cytometry, Jurkat cells
T6 construct: Jurkat E6-1 cells, primary human T cells, or transfected HEK293F cells; also called CD28 on Jurkat cells; CD28 on human CD3+ T cells
Procedure: Next, the cells were washed twice with DPBS and further incubated with a APC-anti-human IgG Fc secondary antibody (1 μg/mL, 100 μL/well, Biolegend) for 30 minutes at 4° C. Finally, the cells were washed twice with DPBS and suspended in FACS buffer for flow cytometry analysis. For analysis, the Mean Fluorescence Intensity (MFI) values versus concentrations were plotted using FlowJo 10 software (FlowJo LLC) and the data were further fitted with four-parameter non-linear regression to obtain EC₅₀ values by GraphPad Prism version 7 for Windows, GraphPad Software, La Jolla California USA, www.graphpad.com.

[6] = biological target: T7, Recombinant mouse CD28-Fc (mouse, UniProt P31041 20-150); assay: ELISA on coated recombinant mouse CD28-Fc, HRP anti-human IgG (Fab specific), A450; panel 'Mouse CD28'
T7 construct: not shown: Fc part
T7 sequence (P31041 20-150 limits assumed): as the sequence (P31041 20-150 limits assumed) above

[7] = biological target: T8, Recombinant human CD28-Fc (human, UniProt P10747 19-152); assay: ELISA, coated CD28-Fc
T8 construct: not shown: Fc part

[8] = biological target: T3, Human CD28 (ELISAs of Examples 4 and 13); assay: ELISA, blocking of CD28-CD80
[9] = biological target: T4, His-tagged human CTLA4 protein; assay: Octet BLI, mAb captured; remark: listed apart in the source;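 for Kd: Anti-human Fc biosensors captured the antibodies, then His-tagged protein analytes at 100 nM associated for 300 s and dissociated for 300 s, fitted by a 1:1 Langmuir model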
Procedure: The Octet® RED96 Systems (ForteBio) was used to assess the binding kinetics of the panel of anti-CD28 mAbs to human CD28 and CTLA4. Briefly, the mAbs were diluted to 15 μg/mL in kinetic buffer (PBS supplemented with 0.02% Tween 20 and 0.1% BSA), and captured by Dip and Read AHC biosensors (ForteBio) in parallel. The sensors were then allowed to associate with His-tagged human CD28 and CTLA4 proteins (100 nM) for 300 seconds, and to dissociate in kinetic buffer for another 300 seconds. The association and dissociation curves were fitted to a 1:1 Langmuir binding model using the Octet® Data Analysis Software Version 7.1 (ForteBio).

[10] = biological target: T8, Recombinant human CD28-Fc; assay: ELISA on coated recombinant human CD28-Fc, HRP anti-human IgG (Fab specific), A450
Procedure: (§1) When measuring the masking efficiency through ELISA, recombinant human CD28-Fc was diluted to 2 g/mL in PBS and coated onto a MaxiSorp™ high protein-binding capacity 96 well ELISA plate (ThermoFisher Scientific) at 4° C. overnight. Plates were blocked with PBS supplemented with 3% non-fat milk at 37° C. for 1 hour. After washing, 100 μL of 3-fold serial dilutions of anti-CD28 test mAbs were added to each well. After incubation at 37° C. for 1 hour, plates were washed four times, and 100 μL horseradish peroxidase (HRP)-conjugated anti-human IgG (Fab specific) (1:6000 dilution) secondary antibody was added to each well. Plates were incubated at 37° C. for 1 hour, washed four times, and then 50 μL a TMB substrate (3, 3′, 5, 5′-tetramethylbenzidine) solution was added to each well, and the plate was incubated at room temperature. Absorbance at 450 nm was measured after the reactions were stopped with 50 μL sulfuric acid stop solution per well. The EC₅₀ was evaluated by fitting the ELISA data using the sigmoidal (four-parameter logistic equation) model of GraphPad Prism version 6 for Windows, GraphPad Software, La Jolla California USA, www.graphpad.com.

[11] = biological target: T8, Recombinant human CD28-Fc; assay: as above; remark: listed apart in the source
Procedure: as §1

[12] = biological target: T7, Recombinant mouse CD28-Fc; assay: ELISA, coated CD28-Fc
Procedure: Recombinant human and mouse CD28-Fc were diluted to 2 g/mL in PBS and coated on Nunc MaxiSorp™ high protein-binding capacity 96 well ELISA plates (ThermoFisher Scientific) at 4° C. overnight. Plates were blocked with PBS supplemented with 3% non-fat milk at 37° C. for 1 hour. After washing, 50 PL of 3-fold serial dilutions of a panel of anti-CD28 test mAbs were added to each well. After incubation at 37° C. for 1 hour, plates were washed four times, and 100 μL of a horseradish peroxidase (HRP)-conjugated anti-human IgG (Fab specific) (1:6000 dilution) secondary antibody was added to each well. Plates were incubated at 37° C. for 1 hour, washed four times, and then 50 μL of a TMB substrate (3, 3′, 5, 5′-tetramethylbenzidine) solution was added to each well, and the plate was incubated at room temperature. Absorbance at 450 nm was measured after the reactions were stopped by adding 50 μL of a sulfuric acid stop solution to each well. The EC₅₀ was evaluated by fitting the ELISA data using the asymmetrical sigmoidal (4-parameter logistic equation) model of GraphPad Prism version 7 for Windows, GraphPad Software, La Jolla California USA, www.graphpad.com.

[13] = biological target: Human CTLA4 (ligand competition ELISA) (human, UniProt P16410 36-161, limits assumed); assay: ELISA, blocking of CTLA4-CD80
Chain of Human CTLA4 (ligand competition ELISA) (P16410 36-161 limits assumed): as the sequence (P16410 36-161 limits assumed) above

B1: TY25238 (bispecific antibody)
chain 1: not shown
chain 2: not shown
chain 3: QAVVTQEPSLTVSPGGTVTLTCGSSTGAVTTSNYPNWVQQKPGQAPRGLIGGTNKRAPGVPARFSGSLLGGKAALTLSGAQPEDEAEYYCALWYSNLWVFGGGTKLTVLGGGGSGGGGSGGGGSGGGGSEVQLVESGGGLVQPGGSLRLSCAASGFTFNTYAINWVRQAPGKGLEWVGRIRSKYNNYATYYAESVKGRFTISRDDSKNTLYLQINSLRAEDTAVYYCVRHGNFGTSYVSWFAYWGQGTLVTVSSEPKSSDKTHTCPPCPAPELLGGPSVFLFPPKPKDTLMISRTPEVTCVVVDVSHEDPEVKFNWYVDGVEVHNAKTKPREEQYASTYRVVSVLTVLHQDWLNGKEYKCKVSNKALPAPIEKTISKAKGQPREPQVYTDPPSRDELTKNQVSLTCLVDGFYPSDIAVEWESNGQPENCYKTTPPVLDSDGSFFLYSKLTVDKSRWQQGNVFSCSVMHEALHNHYTQDSLSLSPGK
- EC50 (HER2 on SK-OV-3 cells): 3.74 nM

B2: TY30123 (bispecific antibody, human IgG1, kappa, N297A)
light: DIQLTQSPSSLSASVGDRVTITCRASQSIRKYLNWYQQKPGKAPKLLIYAASTLQSGVPSRFSGSGSGTDFTLTISSLQPEDFATYFCSQGTHVPFTFGQGTKVEIKRTVAAPSVFIFPPSDEQLKSGTASVVCLLNNFYPREAKVQWKVDNALQSGNSQESVTEQDSKDSTYSLSSTLTLSKADYEKHKVYACEVTHQGLSSPVTKSFNRGEC
heavy: EVQLVESGGGLVQPGGSLRLSCAASGFTFSGYGIHWVRQAPGKGLEWIGWISPSGGDTKYAQKFQGRVTISRDNSKNTLYLQLNSLRAEDTAVYYCARGGTVVYFDYWGQGTLVTVSSASTKGPSVFPLAPSSKSTSGGTAALGCLVKDYFPEPVTVSWNSGALTSGVHTFPAVLQSSGLYSLSSVVTVPSSSLGTQTYICNVNHKPSNTKVDKKVEPKSCDKTHTCPPCPAPELLGGPSVFLFPPKPKDTLMISRTPEVTCVVVDVSHEDPEVKFNWYVDGVEVHNAKTKPREEQYASTYRVVSVLTVLHQDWLNGKEYKCKVSNKALPAPIEKTISKAKGQPREPQVYTLPPSRKKLTKNQVKLTCLVKGFYPSDIAVEWESNGQPENNYKTTPPVLDCDGSFFLYSKLTVDKSRWQQGNVFSCSVMHEALHNHYTQKSLSLSPGK
chain: EVQLVESGGGLVQPGGSLRLSCAASGFSLSTGGVGVGWIRQAPGKGLEWIGEIYHSGSTYYSPSLKSRVTISRDNSKNTLYLQLNSLRAEDTAVYYCARYGYYYYDFDYWGQGTLVTVSSGGGGSGGGGSGGGGSGGGGSDIQLTQSPSSLSASVGDRVTITCRASQSVDFHGISFLHWYQQKPGKAPKLLIYAASSLQSGVPSRFSGSGSGTDFTLTISSLQPEDFATYYCQQSYRSPRTFGQGTKVEIKEPKSSDKTHTCPPCPAPELLGGPSVFLFPPKPKDTLMISRTPEVTCVVVDVSHEDPEVKFNWYVDGVEVHNAKTKPREEQYASTYRVVSVLTVLHQDWLNGKEYKCKVSNKALPAPIEKTISKAKGQPREPQVYTDPPSRDELTKNQVSLTCLVDGFYPSDIAVEWESNGQPENCYKTTPPVLDSDGSFFLYSKLTVDKSRWQQGNVFSCSVMHEALHNHYTQDSLSLSPGK
notes: anti-B7H3 Fab x CD28 scFv BC10621 (VH-VL)-Fc
- AUC (Mouse CD28 on cells): 3820
- EC50 (Mouse CD28 on cells): 76.2 nM
- Max MFI (Mouse CD28 on cells): 1980
- EC50 [1]: 3.59 nM
- EC50 [2]: 96.4 nM

B3: TY29815 (bispecific antibody, human IgG1, kappa, N297A)
light: DIQLTQSPSSLSASVGDRVTITCRASQSIPSFLNWYQQKPGKAPKLLIYAASSLQSGVPSRFSGSGSGTDFTLTISSLQPEDFATYYCQHYISWPRQFTFGQGTKVEIKRTVAAPSVFIFPPSDEQLKSGTASVVCLLNNFYPREAKVQWKVDNALQSGNSQESVTEQDSKDSTYSLSSTLTLSKADYEKHKVYACEVTHQGLSSPVTKSFNRGEC
heavy: EVQLVESGGGLVQPGGSLRLSCAASGYSISSGYYWGWIRQAPGKGLEWIGIIYPSGGGTNYAQKFQGRVTISRDNSKNTLYLQLNSLRAEDTAVYYCARGGGLGFDYWGQGTLVTVSSASTKGPSVFPLAPSSKSTSGGTAALGCLVKDYFPEPVTVSWNSGALTSGVHTFPAVLQSSGLYSLSSVVTVPSSSLGTQTYICNVNHKPSNTKVDKKVEPKSCDKTHTCPPCPAPELLGGPSVFLFPPKPKDTLMISRTPEVTCVVVDVSHEDPEVKFNWYVDGVEVHNAKTKPREEQYASTYRVVSVLTVLHQDWLNGKEYKCKVSNKALPAPIEKTISKAKGQPREPQVYTLPPSRKKLTKNQVKLTCLVKGFYPSDIAVEWESNGQPENNYKTTPPVLDCDGSFFLYSKLTVDKSRWQQGNVFSCSVMHEALHNHYTQKSLSLSPGK
chain: B2 chain with G37S, G101E
notes: also called TY29815 (WT); wild type anti-PD-L1xCD28 bsAb
- EC50 [3]: 22.3 nM

B4: TY30413 (bispecific antibody, human IgG1, kappa, N297A)
light: B3 light
heavy: B3 heavy
chain: B2 chain with G37S, G101E, Y104H
notes: anti-PD-L1 Fab x CD28 scFv VH-VL (YYHY)-Fc
- EC50 [3]: 26.8 nM

B5: TY24890 (antibody, human IgG4 S228P, kappa, V domains shown)
VH: EVQLVESGGGLVQPGGSLRLSCAASGYSISSGHHWGWIRQAPGKGLEWIGEIYHSGSTYYSPSLKSRVTISRDNSKNTLYLQLNSLRAEDTAVYYCARRELGYAYFDYWGQGTLVTVSS
VL: EIVLTQSPATLSLSPGERATLSCRASQDIRKYLAWYQQKPGQAPRLLIYAASTLQSGVPARFSGSGSGTDFTLTISSLEPEDFAVYYCQQYYRTPLTFGQGTKVEIKR
notes: hIgG4/S241P
- Kd [4]: 3.13 nM
- koff [4]: 0.00344 s⁻¹
- kon [4]: 1.1e+06 M⁻¹ s⁻¹
- Kd [5]: 4.44 nM
- koff [5]: 0.000437 s⁻¹
- kon [5]: 98500 M⁻¹ s⁻¹
- EC50 (Human CD28 on cells): 0.59 nM
- binding result [6]: no binding (tested: about 10^-6.9 M)
- EC50 [7]: 1.55 nM
- IC50 [8]: 0.21 nM

B6: TY24773 (antibody, human IgG4 S228P, kappa, V domains shown)
VH: EVQLVESGGGLVQPGGSLRLSCAASGYSISSGYHWGWIRQAPGKGLEWIGEIYHSGSTYYSPSLKSRVTISRDNSKNTLYLQLNSLRAEDTAVYYCARKDYYYALDYWGQGTLVTVSS
VL: DIQLTQSPSSLSASVGDRVTITCRASQSVDFYGKSFLHWYQQKPGKAPKLLIYAASTLQSGVPSRFSGSGSGTDFTLTISSLQPEDFATYYCQQSYRTPLTFGQGTKVEIKR
notes: hIgG4/S241P
- Kd [5]: 8.29 nM
- koff [5]: 0.000319 s⁻¹
- kon [5]: 38500 M⁻¹ s⁻¹
- EC50 (Human CD28 on cells): 0.71 nM
- binding result [9]: no binding (tested: 100 nM CTLA4)

B7: TY24853 (antibody, human IgG4 S228P, kappa, V domains shown)
VH: B6 VH with S30T, Y33H, G36S, Y101D, L105F
VL: B6 VL with Q27E, K34I, L100I
notes: hIgG4/S241P
- Kd [5]: 3.96 nM
- koff [5]: 0.000164 s⁻¹
- kon [5]: 41600 M⁻¹ s⁻¹
- EC50 (Human CD28 on cells): 0.43 nM
- binding result [9]: no binding (tested: 100 nM CTLA4)

B8: TY24865 (antibody, human IgG4 S228P, kappa)
heavy: not shown
light: DIQLTQSPSSLSASVGDRVTITCRASQSVDFHGISFLHWYQQKPGKAPKLLIYAASSLQSGVPSRFSGSGSGTDFTLTISSLQPEDFATYYCQQSYRSPRTFGQGTKVEIKRTVAAPSVFIFPPSDEQLKSGTASVVCLLNNFYPREAKVQWKVDNALQSGNSQESVTEQDSKDSTYSLSSTLTLSKADYEKHKVYACEVTHQGLSSPVTKSFNRGEC
notes: hIgG4/S241P; also called parental anti-CD28 antibody
- binding result [4]: no binding (tested: 100 nM CTLA4)
- Kd [5]: < 0.001 nM
- EC50 (Human CD28 on cells): 0.46 nM
- EC50 (read off the curve) [10]: ~900 pM
- EC50 (read off the curve) [11]: ~700 pM
- EC50 [12]: > 4.94 nM
- EC50 [7]: 0.58 nM
- IC50 [8]: 0.68 nM

B9: TY21580 (antibody, V domains shown)
VH: EVQLVESGGGLVQPGGSLRLSCAASGYSISSGYHWSWIRQAPGKGLEWLARIDWDDDKYYSTSLKSRLTISRDNSKNTLYLQLNSLRAEDTAVYYCARSYVYFDYWGQGTLVTVSS
VL: DIQLTQSPSSLSASVGDRVTITCRASQSVRGRFLAWYQQKPGKAPKLLIYDASNRATGIPSRFSGSGSGTDFTLTISSLQPEDFATYYCQQSSSWPPTFGQGTKVEIKR
- IC50 [13]: 37.2 nM
